# Measurements from the supplement of paper PMC10126150.
# ± gives the standard deviation of the averaged measurements.
# System: ATP
# Assay: switch fluorescence ratio, 500 uM ATP over buffer (Cy3 cluster intensity, sum of 5 cycles each) (fold (ratio)); higher = stronger signal-on switching upon ATP binding; sequences stand for … in TCGTCGGCAGCGTCAGATGTGTATAAGAGACAGTTTTTTTTTTTTTTTTTTTTTTTTT…TC
# Settings: aptamer strand: ATP DNA aptamer (quencher-CACCTGGGGGAGTATTGCGGAGGAAGG + anchor), 100 nM annealed; ATP concentration: 500 uM
# Outline: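 Clusters with intensities outside 100-1000 RFU were excluded. The remaining Cy3-labelled switching-strand clusters on a modified Illumina MiSeq flow-cell had been annealed to 100 nM quencher-labelled ATP aptamer and imaged in selection buffer, then after 15 min with 500 uM ATP at 22 °C, for five cycles separated by NaOH stripping and re-annealing. The fluorescence ratio, averaged per switch-domain sequence, is each cluster's summed target-cycle Cy3 intensity over its summed buffer-cycle Cy3 intensity.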
# 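Also: ATP exposure 15 min at 22 °C before imaging.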
row,Sequence,switch fluorescence ratio
1,TATGACTTTG,1.03 ± 0.071
2,TATGAGATAG,0.982 ± 0.021
3,TATGAGATTT,0.955 ± 0.026
4,TATGAGGATC,1.01 ± 0.039
5,TATGAGGATT,0.9749 ± 0.0023
6,TATGAGGGCT,1.04 ± 0.012
7,TATGAGTCGA,1 ± 0.019
8,TATGATCTGT,0.979 ± 0.021
9,TATGATGGGG,0.963 ± 0.035
10,TATGATTTGG,0.976 ± 0.031
11,TATGCAGGGA,1.16 ± 0.29
12,TATGCATGTG,0.996 ± 0.015
13,TATGCCATTT,1.0337 ± 0.00046
14,TATGCGGCTT,0.988 ± 0.04
15,TATGCGGGGG,1.02 ± 0.046
16,TATGGAATGG,0.997 ± 0.046
17,TATGGACTGT,1.021 ± 0.01
18,TATGGAGCCA,1.02 ± 0.032
19,TATGGAGGAT,1.09 ± 0.13
20,TATGGATAGG,0.996 ± 0.014
21,TATGGCCGTG,0.998 ± 0.061
22,TATGGGAATG,1.019 ± 0.0021
23,TATGGGATGT,0.988 ± 0.016

row,Sequence,switch fluorescence ratio
1,TATGGGATTA,1.04 ± 0.064
2,TATGGGATTG,0.998 ± 0.021
3,TATGGGGCAA,1.091 ± 0.0015
4,TATGGGGGAT,1.03 ± 0.093
5,TATGGGGGGT,0.976 ± 0.017
6,TATGGGTAAT,0.975 ± 0.016
7,TATGGGTGGC,1.02 ± 0.11
8,TATGGTAGGG,0.9886 ± 0.0076
9,TATGGTCTGT,0.981 ± 0.042
10,TATGGTGGAG,0.981 ± 0.02
11,TATGGTGGTT,1.12 ± 0.12
12,TATGGTGTTT,1.02 ± 0.036
13,TATGTAAGGG,1.01 ± 0.026
14,TATGTACGCA,1.11 ± 0.018
15,TATGTACGTG,1.02 ± 0.053
16,TATGTACTAA,1.08 ± 0.023
17,TATGTCCGTA,1 ± 0.013
18,TATGTGAAAA,0.9747 ± 0.006
19,TATGTGACTT,1.03 ± 0.0074
20,TATGTGAGTT,1.001 ± 0.0099
21,TATGTGGGGT,0.992 ± 0.026
22,TATGTTAGGA,1.0104 ± 0.00038
23,TATGTTATTT,1.02 ± 0.012

row,Sequence,switch fluorescence ratio
1,TATGTTCCAA,1.01 ± 0.03
2,TATGTTGGTG,0.987 ± 0.018
3,TATGTTGTAC,1.052 ± 0.0086
4,TATGTTGTAT,0.984 ± 0.053
5,TATGTTTCAA,1.017 ± 0.0089
6,TATGTTTCTA,1.0004 ± 0.00054
7,TATGTTTTTC,0.9687 ± 0.0014
8,TATTAAAAGA,0.99 ± 0.03
9,TATTAAAGGG,0.985 ± 0.017
10,TATTAAATTT,1.031 ± 0.0051
11,TATTAACTAG,1.02 ± 0.0022
12,TATTAAGAAA,0.962 ± 0.016
13,TATTAAGG,1.01 ± 0.011
14,TATTAAGGA,0.9762 ± 0.009
15,TATTAAGTAG,1.03 ± 0.038
16,TATTAATAA,1 ± 0.0029
17,TATTAATGTT,0.997 ± 0.019
18,TATTAATTAT,1.01 ± 0.022
19,TATTACAAT,1.03 ± 0.052
20,TATTACCTTA,1.03 ± 0.044
21,TATTACGAAA,1.1 ± 0.032
22,TATTACTCGT,1.01 ± 0.07
23,TATTACTTAG,1.062 ± 0.01

row,Sequence,switch fluorescence ratio
1,TATTACTTGC,1.03 ± 0.042
2,TATTAGGGAT,0.9951 ± 0.0058
3,TATTAGGGGG,0.984 ± 0.048
4,TATTAGGGTG,1.05 ± 0.098
5,TATTAGGTAT,0.961 ± 0.018
6,TATTAGGTCT,0.991 ± 0.045
7,TATTAGTGAT,0.9869 ± 0.0055
8,TATTATATGG,1.03 ± 0.027
9,TATTATCGTA,0.9927 ± 0.0081
10,TATTATGCGG,0.984 ± 0.017
11,TATTATTGCG,0.988 ± 0.011
12,TATTCGCCCA,1.11 ± 0.2
13,TATTCGGATT,0.984 ± 0.03
14,TATTCGGGGG,1.04 ± 0.078
15,TATTCGTGGG,0.956 ± 0.048
16,TATTCGTTCT,0.9985 ± 0.0022
17,TATTCTCATC,1.013 ± 0.0027
18,TATTCTGGTT,1.02 ± 0.05
19,TATTCTTTGA,1.02 ± 0.03
20,TATTGAATTC,1.01 ± 0.016
21,TATTGACTTT,1.28 ± 0.35
22,TATTGAGTTA,1.01 ± 0.033
23,TATTGCTCAC,1.04 ± 0.02

row,Sequence,switch fluorescence ratio
1,TATTGGAGTG,0.966 ± 0.084
2,TATTGGGGCG,0.982 ± 0.017
3,TATTGGGGTT,0.996 ± 0.04
4,TATTGGGTAT,1.03 ± 0.038
5,TATTGGTAGG,0.941 ± 0.019
6,TATTGGTCGT,0.968 ± 0.042
7,TATTGGTTCA,0.996 ± 0.018
8,TATTGGTTTG,1.04 ± 0.045
9,TATTGTGCTT,0.982 ± 0.035
10,TATTGTGTTT,0.9781 ± 0.0039
11,TATTGTTCGC,0.98 ± 0.046
12,TATTGTTTTT,1.01 ± 0.022
13,TATTTAAAAT,0.995 ± 0.046
14,TATTTAAACG,1 ± 0.011
15,TATTTAGTAG,1.006 ± 0.0072
16,TATTTAGTTG,1 ± 0.024
17,TATTTATAAA,0.998 ± 0.025
18,TATTTATTAG,0.991 ± 0.029
19,TATTTCAGTC,1.01 ± 0.02
20,TATTTCGAAT,1.11 ± 0.18
21,TATTTCGTTG,0.998 ± 0.059
22,TATTTGAATG,1.01 ± 0.028
23,TATTTGAGTT,0.96526 ± 0.00075

row,Sequence,switch fluorescence ratio
1,TATTTGATGT,0.991 ± 0.029
2,TATTTGGAAA,0.991 ± 0.036
3,TATTTGGACG,1.05 ± 0.068
4,TATTTGGAGT,1.012 ± 0.0022
5,TATTTGGGCA,1.01 ± 0.041
6,TATTTGGTGA,0.993 ± 0.025
7,TATTTGGTGG,1.02 ± 0.027
8,TATTTGGTT,0.991 ± 0.024
9,TATTTGTAAT,1.03 ± 0.02
10,TATTTGTAGG,1.05 ± 0.045
11,TATTTGTGTT,0.997 ± 0.016
12,TATTTGTTCT,1 ± 0.024
13,TATTTTAATT,0.991 ± 0.017
14,TATTTTACGT,1.01 ± 0.013
15,TATTTTCGTA,1 ± 0.021
16,TATTTTCTGT,0.997 ± 0.036
17,TATTTTGGAA,0.986 ± 0.044
18,TATTTTGGGG,0.988 ± 0.019
19,TATTTTGTTT,0.99 ± 0.014
20,TATTTTTAGG,1 ± 0.032
21,TCAAAAAAAT,1.02 ± 0.091
22,TCAAAATTTA,1.02 ± 0.048
23,TCAAACAGGG,1.04 ± 0.051

row,Sequence,switch fluorescence ratio
1,TCAAACATTT,1.016 ± 0.0076
2,TCAAACCGGT,0.983 ± 0.043
3,TCAAACTTTA,1.03 ± 0.025
4,TCAAAGACGG,1.02 ± 0.016
5,TCAAAGCAAA,1.41 ± 0.077
6,TCAAATCGGG,0.999 ± 0.014
7,TCAAATGGTA,1.006 ± 0.0037
8,TCAAATTCGG,1.01 ± 0.011
9,TCAACAACCA,1.06 ± 0.017
10,TCAACCGGGA,1.06 ± 0.09
11,TCAACGCCCC,1.28 ± 0.055
12,TCAACTATTA,0.977 ± 0.018
13,TCAAGATA,1.13 ± 0.21
14,TCAAGATTTT,0.975 ± 0.025
15,TCAAGGCACA,1.089 ± 0.01
16,TCAAGGCCGG,1.02 ± 0.035
17,TCAAGGGGCT,1 ± 0.013
18,TCAAGGGGGC,0.9915 ± 0.0018
19,TCAAGGGTTA,1.02 ± 0.011
